Laboratory results as given in patent US20260242478A1 (published 2026).
Where no end group is shown, it is not given here.

B1: Phage-1971 (peptide)
peptide: VMNWCTPVWMCQGF
notes: tested as crude clonal phage supernatant
B2: Phage-1972 (peptide)
peptide: PWHWCIPEWMCAEY
notes: as for B1
B3: Phage-1973 (peptide)
peptide: FDKWCIPEWMCAVL
notes: as for B1
B4: Phage-1974 (peptide)
peptide: LVKWCIPEWMCEVL
notes: as for B1
B5: Phage-1975 (peptide)
peptide: FDNWCKPSWMCAGL
notes: as for B1
B6: Phage-1976 (peptide)
peptide: TMHWCIPQWMCETG
notes: as for B1
B7: Phage-1977 (peptide)
peptide: MAQWCTPAWMCSGF
notes: as for B1
B8: Phage-1978 (peptide)
peptide: SERWCIPTWMCQET
notes: as for B1
B9: Phage-1979 (peptide)
peptide: LPKWCTPEWMCIGF
notes: as for B1
B10: Phage-1980 (peptide)
peptide: LDKWCIPPWMCYSI
notes: as for B1
B11: Phage-1997 (peptide)
peptide: NFHLCTPQWMCTGF
modifications: cysteine pairing not given here; also: displayed as fusion to phage pIII
notes: Peptide-180 library clone
B12: Phage-1998 (peptide)
peptide: IDKWCIPAWMCVSN
modifications: cysteine pairing not given here; also: displayed as fusion to phage pIII
notes: Peptide-180 library clone
B13: Phage-1999 (peptide)
peptide: IPKWCTPAWMCESM
modifications: cysteine pairing not given here; also: displayed as fusion to phage pIII
notes: Peptide-180 library clone
B14: Phage-2000 (peptide)
peptide: HEMWCRPAWMCDGF
modifications: cysteine pairing not given here; also: displayed as fusion to phage pIII
notes: Peptide-180 library clone
B15: Phage-2001 (peptide)
peptide: EVKWCTPAWMCEGF
modifications: cysteine pairing not given here; also: displayed as fusion to phage pIII
notes: Peptide-180 library clone
B16: Phage-2002 (peptide)
peptide: LEKLCIPSWMCEGM
modifications: cysteine pairing not given here; also: displayed as fusion to phage pIII
notes: Peptide-180 library clone
B17: Phage-2003 (peptide)
peptide: FEKWCVPIWMCRDS
modifications: cysteine pairing not given here; also: displayed as fusion to phage pIII
notes: Peptide-180 library clone
B18: Phage-2004 (peptide)
peptide: IDNWCRPLWMCHGF
modifications: cysteine pairing not given here; also: displayed as fusion to phage pIII
notes: Peptide-180 library clone
B19: Phage-2005 (peptide)
peptide: VTKWCIPEWMCEYI
modifications: cysteine pairing not given here; also: fused to phage pIII, pIII sequence and linker not given here
notes: Peptide-180 library clone
B20: Phage-2006 (peptide)
peptide: LPHWCTPLWMCEGF
modifications: cysteine pairing not given here; also: fused to phage pIII, pIII sequence and linker not given here
notes: Peptide-180 library clone
B21: Phage-2007 (peptide)
peptide: QDMWCIPPWMCWAQ
modifications: cysteine pairing not given here; also: fused to phage pIII, pIII sequence and linker not given here
notes: Peptide-180 library clone
B22: Phage-2008 (peptide)
peptide: HPKWCTPAWMCVML
modifications: cysteine pairing not given here; also: fused to phage pIII, pIII sequence and linker not given here
notes: Peptide-180 library clone
B23: Phage-2009 (peptide)
peptide: EFVKCVPAWMCEWT
modifications: cysteine pairing not given here; also: fused to phage pIII, pIII sequence and linker not given here
notes: Peptide-180 library clone
B24: Phage-2010 (peptide)
peptide: LQKLCIPEWMCLNM
modifications: cysteine pairing not given here; also: fused to phage pIII, pIII sequence and linker not given here
notes: Peptide-180 library clone
B25: Phage-2011 (peptide)
peptide: DTHMCRPLWMCTGL
modifications: cysteine pairing not given here; also: fused to phage pIII, pIII sequence and linker not given here
notes: Peptide-180 library clone
B26: Phage-2012 (peptide)
peptide: GEKWCIPPWMCITN
notes: Peptide-180 library clone, tested as clonal phage supernatant
B27: Phage-2013 (peptide)
peptide: LEKWCIPAWMCEVF
notes: as for B26
B28: Phage-2014 (peptide)
peptide: PERWCIPVWMCESG
notes: as for B26
B29: Phage-2015 (peptide)
peptide: VVQLCSPVWMCEGF
notes: as for B26
B30: Phage-2016 (peptide)
peptide: PIRLCIPEWMCEMV
notes: as for B26
B31: Phage-2017 (peptide)
peptide: MVKWCFPEWMCWTD
notes: as for B26
B32: Phage-2018 (peptide)
peptide: LDKWCTPSWMCYGM
notes: as for B26
B33: Phage-2019 (peptide)
peptide: IVKWCTPPWMCTIY
notes: as for B26
B34: Phage-2020 (peptide)
peptide: VIKLCSPPWMCIGL
notes: as for B26
B35: Phage-2021 (peptide)
peptide: TEIWCIPPWMCDGQ
notes: as for B26
B36: Phage-2022 (peptide)
peptide: QLNWCIPEWMCQGL
notes: as for B26
B37: Phage-2023 (peptide)
peptide: ALMWCIPQWMCQDQ
notes: as for B26

These binders were tested against T1, Anti-PSMA Fab (SEQ ID NOs: 19, 20) (assay: phage binding ELISA; biotinylated PSMA Fab captured on neutravidin plate, clonal phage supernatant, anti-M13 HRP detection).
T1 construct: Biotinylated and captured on neutravidin coated plates in the phage ELISA; also called 006 PSMA Fab
Procedure: (§1) Clonal phage were harvested as crude supernatants and screened via standard ELISAs. […] Prior to the addition of clonal phage. wells were incubated with blocking buffer and PSMA antigen or blocking buffer alone. Without washing or aspirating, clonal phage supernatants were then added to the wells and incubated for a short time. Wells were then washed followed by detection of bound phage using a horse radish conjugated anti-M13 antibody.
With B1 the “Anti-PSMA Fab (SEQ ID NOs: 19, 20) signal” value was 1.9.
With B2 the “Anti-PSMA Fab (SEQ ID NOs: 19, 20) signal” value was 1.9.
With B3 the “Anti-PSMA Fab (SEQ ID NOs: 19, 20) signal” value was 1.9.
With B4 the “Anti-PSMA Fab (SEQ ID NOs: 19, 20) signal” value was 1.9.
In the case of B5, the “Anti-PSMA Fab (SEQ ID NOs: 19, 20) signal” value is reported as 1.89.
With B6 the “Anti-PSMA Fab (SEQ ID NOs: 19, 20) signal” value was 1.89.
In the case of B7, the “Anti-PSMA Fab (SEQ ID NOs: 19, 20) signal” value is reported as 1.89.
With B8 the “Anti-PSMA Fab (SEQ ID NOs: 19, 20) signal” value was 1.89.
With B9 the “Anti-PSMA Fab (SEQ ID NOs: 19, 20) signal” value was 1.89.
With B10 the “Anti-PSMA Fab (SEQ ID NOs: 19, 20) signal” value was 1.89.

What follows are binders tested against T2, Anti-PSMA Fab (SEQ ID NOs: 19, 20) (assay: phage ELISA; biotinylated PSMA Fab on neutravidin plate pre-incubated with PSMA antigen (competitor), anti-M13 HRP detection).
T2 construct: In the phage ELISA the Fab was biotinylated and captured on neutravidin coated plates; also called 006 PSMA Fab
Procedure: as §1
For B11, the “Phage binding ELISA, Anti-PSMA Fab signal in the presence of PSMA” value (“Phage binding ELISA … of PSMA” below) was 0.0973.
For B12, the “Phage binding ELISA … of PSMA” value was 0.0815.
B13 was tested, and the “Phage binding ELISA … of PSMA” value was 0.0609.
In the case of B14, the “Phage binding ELISA … of PSMA” value is reported as 0.0635.
For B15, the “Phage binding ELISA … of PSMA” value was 0.0605.
With B16 the “Phage binding ELISA … of PSMA” value was 0.0942.
For B17, the “Phage binding ELISA … of PSMA” value was 0.161.
For B18, the “Phage binding ELISA … of PSMA” value was 0.0907.
For B19, the “Phage binding ELISA … of PSMA” value was 0.0658.
In the case of B20, the “Phage binding ELISA … of PSMA” value is reported as 0.0658.
For B21, the “Phage binding ELISA … of PSMA” value was 0.126.
For B22, the “Phage binding ELISA … of PSMA” value was 0.0691.
For B23, the “Phage binding ELISA … of PSMA” value was 0.0768.
With B24 the “Phage binding ELISA … of PSMA” value was 0.0655.
For B25, the “Phage binding ELISA … of PSMA” value was 0.0778.

These binders were tested against T2, Anti-PSMA Fab (SEQ ID NOs: 19, 20) (assay: phage ELISA; biotinylated PSMA Fab on neutravidin plate, clonal phage supernatant, anti-M13 HRP detection;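 note: wells preincubated with PSMA antigen in blocking buffer or with blocking buffer only before clonal phage were added for a short incubation, then bound phage detected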).
Procedure: as §1
With B11 the “Phage binding ELISA, Anti-PSMA Fab signal” value was 1.86.
In the case of B12, the “Phage binding ELISA, Anti-PSMA Fab signal” value is reported as 1.86.
In the case of B13, the “Phage binding ELISA, Anti-PSMA Fab signal” value is reported as 1.86.
In the case of B14, the “Phage binding ELISA, Anti-PSMA Fab signal” value is reported as 1.85.
With B15 the “Phage binding ELISA, Anti-PSMA Fab signal” value was 1.85.
With B16 the “Phage binding ELISA, Anti-PSMA Fab signal” value was 1.85.
B17 was tested, and the “Phage binding ELISA, Anti-PSMA Fab signal” value was 1.85.
B18 was tested, and the “Phage binding ELISA, Anti-PSMA Fab signal” value was 1.85.
For B19, the “Phage binding ELISA, Anti-PSMA Fab signal” value was 1.85.
With B20 the “Phage binding ELISA, Anti-PSMA Fab signal” value was 1.85.
For B21, the “Phage binding ELISA, Anti-PSMA Fab signal” value was 1.85.
In the case of B22, the “Phage binding ELISA, Anti-PSMA Fab signal” value is reported as 1.85.
With B23 the “Phage binding ELISA, Anti-PSMA Fab signal” value was 1.84.
B24 was tested, and the “Phage binding ELISA, Anti-PSMA Fab signal” value was 1.84.
For B25, the “Phage binding ELISA, Anti-PSMA Fab signal” value was 1.84.

What follows are binders tested against T1, Anti-PSMA Fab (SEQ ID NOs: 19, 20) (assay: phage binding ELISA on captured PSMA Fab; wells pre-incubated with PSMA antigen as competitor).
Procedure: as §1
In the case of B1, the “Anti-PSMA Fab signal in the presence of PSMA” value is reported as 0.115.
In the case of B2, the “Anti-PSMA Fab signal in the presence of PSMA” value is reported as 0.083.
With B3 the “Anti-PSMA Fab signal in the presence of PSMA” value was 0.0682.
B4 was tested, and the “Anti-PSMA Fab signal in the presence of PSMA” value was 0.0751.
B5 was tested, and the “Anti-PSMA Fab signal in the presence of PSMA” value was 0.0863.
In the case of B6, the “Anti-PSMA Fab signal in the presence of PSMA” value is reported as 0.25.
In the case of B7, the “Anti-PSMA Fab signal in the presence of PSMA” value is reported as 0.0721.
B8 was tested, and the “Anti-PSMA Fab signal in the presence of PSMA” value was 0.0819.
In the case of B9, the “Anti-PSMA Fab signal in the presence of PSMA” value is reported as 0.113.
With B10 the “Anti-PSMA Fab signal in the presence of PSMA” value was 0.0602.

The binders below were run against T3, Anti-PSMA Fab (SEQ ID NOs: 19, 20) (assay: phage binding ELISA; biotinylated PSMA Fab on neutravidin plate, clonal phage, anti-M13-HRP detection).
T3 construct: Biotinylated PSMA Fab captured on neutravidin coated plates in the phage ELISA; also called 006 PSMA Fab
Procedure: as §1
In the case of B26, the “Anti-PSMA Fab (SEQ ID NOs: 19, 20) signal” value is reported as 1.84.
For B27, the “Anti-PSMA Fab (SEQ ID NOs: 19, 20) signal” value was 1.84.
In the case of B28, the “Anti-PSMA Fab (SEQ ID NOs: 19, 20) signal” value is reported as 1.83.
B29 was tested, and the “Anti-PSMA Fab (SEQ ID NOs: 19, 20) signal” value was 1.83.
B30 was tested, and the “Anti-PSMA Fab (SEQ ID NOs: 19, 20) signal” value was 1.83.
In the case of B31, the “Anti-PSMA Fab (SEQ ID NOs: 19, 20) signal” value is reported as 1.83.
With B32 the “Anti-PSMA Fab (SEQ ID NOs: 19, 20) signal” value was 1.83.
In the case of B33, the “Anti-PSMA Fab (SEQ ID NOs: 19, 20) signal” value is reported as 1.83.
With B34 the “Anti-PSMA Fab (SEQ ID NOs: 19, 20) signal” value was 1.82.
With B35 the “Anti-PSMA Fab (SEQ ID NOs: 19, 20) signal” value was 1.82.
In the case of B36, the “Anti-PSMA Fab (SEQ ID NOs: 19, 20) signal” value is reported as 1.82.
In the case of B37, the “Anti-PSMA Fab (SEQ ID NOs: 19, 20) signal” value is reported as 1.82.

What follows are binders tested against T3, Anti-PSMA Fab (SEQ ID NOs: 19, 20) (assay: phage binding ELISA; Fab-coated wells pre-incubated with PSMA antigen as competitor, anti-M13-HRP detection;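 note: clonal phage supernatants screened, with reference wells given blocking buffer only (no PSMA antigen) before phage were added for a brief incubation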).
Procedure: as §1
With B26 the “Anti-PSMA Fab signal in the presence of PSMA” value was 0.0697.
With B27 the “Anti-PSMA Fab signal in the presence of PSMA” value was 0.0967.
B28 was tested, and the “Anti-PSMA Fab signal in the presence of PSMA” value was 0.0731.
B29 was tested, and the “Anti-PSMA Fab signal in the presence of PSMA” value was 0.086.
With B30 the “Anti-PSMA Fab signal in the presence of PSMA” value was 0.0575.
With B31 the “Anti-PSMA Fab signal in the presence of PSMA” value was 0.136.
In the case of B32, the “Anti-PSMA Fab signal in the presence of PSMA” value is reported as 0.106.
B33 was tested, and the “Anti-PSMA Fab signal in the presence of PSMA” value was 0.153.
In the case of B34, the “Anti-PSMA Fab signal in the presence of PSMA” value is reported as 0.0946.
With B35 the “Anti-PSMA Fab signal in the presence of PSMA” value was 0.0686.
With B36 the “Anti-PSMA Fab signal in the presence of PSMA” value was 0.124.
For B37, the “Anti-PSMA Fab signal in the presence of PSMA” value was 0.102.
